From PMC9504884, “Functional Interactions of Kluyveromyces lactis Telomerase Reverse Transcriptase with the Three-Way Junction and the Template Domains of Telomerase RNA”

What was measured:
Experiment in all cases: EMSA; 1 nM RNA, tRNA competitor; 25 mM Tris-HCl pH 7.5, 50 mM KCl, 1 mM MgCl2, 1 mM DTT, 10% glycerol, 0.1% Triton, 0.5 mg/mL BSA, 1.7 ng/uL yeast tRNA, 1 nM RNA probe; 15 min on ice then 10 min room temperature; gel at 6 C
[1] = molecular target: T1, klTRBD klEst2 171-422 (Kluyveromyces lactis, UniProt Q6CSS0 171-422); conditions: protein: recombinant; tags: N-terminal His-SUMO, TEV-cleaved; label: 5'-32P when probe; three-way junction
T1 sequence: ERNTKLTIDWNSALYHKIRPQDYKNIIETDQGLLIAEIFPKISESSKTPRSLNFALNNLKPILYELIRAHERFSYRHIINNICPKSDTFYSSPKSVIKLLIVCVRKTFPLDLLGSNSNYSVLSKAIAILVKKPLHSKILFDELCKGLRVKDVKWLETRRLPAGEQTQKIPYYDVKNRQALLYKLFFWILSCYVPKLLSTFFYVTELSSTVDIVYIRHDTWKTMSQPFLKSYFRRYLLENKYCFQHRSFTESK

[2] = molecular target: T2, klEst2 full-length (TERT) (Kluyveromyces lactis, UniProt Q6CSS0 1-861); conditions: protein: recombinant; tags: expressed in E. coli; His-SUMO tag described for the TRBD constructs, tag of full-length not clearly stated; label: 5'-32P when probe; three-way junction
T2 sequence: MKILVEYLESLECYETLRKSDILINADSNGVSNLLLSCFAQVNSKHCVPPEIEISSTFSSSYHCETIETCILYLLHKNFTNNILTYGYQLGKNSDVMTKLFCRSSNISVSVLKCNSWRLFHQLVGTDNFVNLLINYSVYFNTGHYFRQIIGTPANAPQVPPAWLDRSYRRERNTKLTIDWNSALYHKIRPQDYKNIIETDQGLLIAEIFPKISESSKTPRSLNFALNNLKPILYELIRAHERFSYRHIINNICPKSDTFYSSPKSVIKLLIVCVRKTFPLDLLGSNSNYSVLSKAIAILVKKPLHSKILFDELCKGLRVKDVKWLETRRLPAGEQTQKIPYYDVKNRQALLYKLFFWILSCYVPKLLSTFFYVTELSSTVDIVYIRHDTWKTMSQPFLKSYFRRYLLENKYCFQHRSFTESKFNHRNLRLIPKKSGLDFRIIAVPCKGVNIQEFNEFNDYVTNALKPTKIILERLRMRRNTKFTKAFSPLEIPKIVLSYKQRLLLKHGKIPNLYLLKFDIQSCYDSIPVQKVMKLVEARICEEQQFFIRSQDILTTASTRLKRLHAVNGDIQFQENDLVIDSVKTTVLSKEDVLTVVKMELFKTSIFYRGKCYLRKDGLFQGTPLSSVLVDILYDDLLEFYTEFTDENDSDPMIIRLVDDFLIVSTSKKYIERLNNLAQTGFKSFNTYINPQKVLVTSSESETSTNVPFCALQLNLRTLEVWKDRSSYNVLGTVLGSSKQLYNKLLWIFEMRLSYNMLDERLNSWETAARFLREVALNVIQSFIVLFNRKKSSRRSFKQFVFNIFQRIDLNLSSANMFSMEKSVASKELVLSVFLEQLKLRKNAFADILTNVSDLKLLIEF

[3] = molecular target: T3, klTRBD klEst2 171-404 (Kluyveromyces lactis, UniProt Q6CSS0 171-404); conditions: protein: recombinant; tags: N-terminal His-SUMO, TEV-cleaved; label: 5'-32P when probe; three-way junction
T3 sequence: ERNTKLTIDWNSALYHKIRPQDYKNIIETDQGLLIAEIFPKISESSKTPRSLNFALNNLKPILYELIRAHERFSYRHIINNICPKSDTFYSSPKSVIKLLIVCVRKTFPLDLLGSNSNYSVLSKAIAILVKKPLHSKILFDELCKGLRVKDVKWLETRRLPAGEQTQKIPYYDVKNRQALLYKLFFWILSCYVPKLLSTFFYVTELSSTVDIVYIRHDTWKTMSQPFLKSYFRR

B1: minTWJ (structured_RNA)
RNA: GGGUUGUCCUAUGGUGGAUCUUGAAAAGACCCUCGGAAGACAGGGCCACAUCGACGAUCAAUAUUUUGCCGUGAGGCUUAUAUGUCACCAUGGCAUGCAGCCC
[1]
  binding result: no binding
[2]
  binding result: binds
[3]
  binding result: no binding
